Substitutions are numbered along the chain they refer to.
Assays:
C5aR^R175V/Y258V = molecular target: T1, C5aR^R175V/Y258V (Homo sapiens, UniProt P21730, R175V/Y258V); assay: 35S-GTPγS binding assay, R175V/Y258V mutant; format: biochemical; details: increased concentration of C5a, Fig. S7
T1 construct: Flag (N); His8 (C); made in house; host or cells: HEK-293S cells (BacMam baculovirus)
T1 sequence (P21730 1-350 R175V/Y258V): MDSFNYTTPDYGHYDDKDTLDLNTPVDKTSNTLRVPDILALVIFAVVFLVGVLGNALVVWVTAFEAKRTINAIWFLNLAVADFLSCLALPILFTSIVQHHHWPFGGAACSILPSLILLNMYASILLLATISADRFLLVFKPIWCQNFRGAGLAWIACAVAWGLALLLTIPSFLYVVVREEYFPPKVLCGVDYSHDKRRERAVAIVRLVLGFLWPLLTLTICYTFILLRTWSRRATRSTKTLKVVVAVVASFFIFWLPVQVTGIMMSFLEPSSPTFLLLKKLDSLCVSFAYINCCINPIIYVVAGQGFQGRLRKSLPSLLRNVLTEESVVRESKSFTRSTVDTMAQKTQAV
Protocol: (§1) Mutant variants (D282A, D282N, and R175V/Y258V) were generated based on the wtC5aR construct and fully sequenced. Mutant variants were expressed following the same method as for wtC5aR except for some modifications. HEK-293S cells expressing each mutant were pelleted by centrifugation and resuspended in 20 ml buffer containing 20 mM HEPES pH 7.5, 100 mM NaCl, 0.2 μg ml^−1 leupeptin, and 150 μg ml^−1 benzamidine. After 20 min incubation at 25 °C, 20 ml 2X solubilization buffer containing 20 mM HEPES pH 7.5, 100 mM NaCl, 1% dodecyl-maltoside (DDM), 0.2% cholesterol hemisuccinate (CHS), 20% glycerol, 0.2 μg ml^−1 leupeptin, 150 μg ml^−1 benzamidine, and 5 U Salt Active Nuclease (Sigma) was added. Cell membranes were solubilized for 1.5 h at 4 °C. […]
(§2) For the ^35S-GTPγS binding assays, the membrane of HEK293S GnTI^− cells expressing wtC5aR (~200 µg ml^−1) or mutant variants was incubated with 200 nM purified Gi protein for 30 min on ice in buffer containing 20 mM HEPES pH 7.5, 100 mM NaCl, 5 mM MgCl2, 3 μg ml^−1 BSA, 0.1 μM TCEP, and 5 μM GDP to get the receptor and Gi complex. […] The radiation of bound ^35S-GTPγS was measured on a Beckman LS6500 scintillation counter to determine the binding of ^35S-GTPγS to Gi induced by C5aR activation. […]

C5aR^D282A = molecular target: T2, C5aR^D282A (Homo sapiens, UniProt P21730, D282A); assay: 35S-GTPγS binding assay, D282A mutant; format: biochemical; details: increased concentration of C5a, Fig. S7
T2 construct: Flag (N); His8 (C); made in house; host or cells: HEK-293S cells (BacMam baculovirus)
T2 sequence (P21730 1-350 D282A): T1 sequence (P21730 1-350 R175V/Y258V) with V175R, V258Y, D282A
Protocol: as §1, §2

[1] = tested on: C5aR with mutations Y11F and Y14F; details: cited from earlier work
Excerpt: In line with our results, intrinsic binding energies have been previously described for intramolecular binding events inv ...

B1: C5a: C5a, a large 74-amino acid glycoprotein; endogenous ligand of C5aR (His6-tag at N-terminal end for AFM tips) (protein)
chain: TLQKKIEEIAAKYKHSVVKKCCYDGACVNNDETCEQRAARISLGPRCIKAFTECCVVASQLRANISHKDMQLGR
modifications: left off: His6, N-terminal, kept
Gi-protein activation vs C5aR^WT (C5aR^R175V/Y258V): strong reduction in the Gi-protein activation
Gi-protein activation vs C5aR^WT (C5aR^D282A): strong reduction in the Gi-protein activation
signaling of C5aR induced by C5a upon Y11F and Y14F mutations [1]: could almost abolish the signaling of C5aR

From publication PMC7749166 (Communications Biology, 2020)
